Results on one molecule are retold here after US20030158378A1 (Amgen, published 2003).

The assay addresses T1, FLAG-tagged murine CHL2 polypeptide (mCHL2-FLAG) (murine, UniProt Q8VEA6 27-426).
T1 construct: also called murine CHL2-FLAG; FLAG-tagged mCHL2 protein
T1 sequence: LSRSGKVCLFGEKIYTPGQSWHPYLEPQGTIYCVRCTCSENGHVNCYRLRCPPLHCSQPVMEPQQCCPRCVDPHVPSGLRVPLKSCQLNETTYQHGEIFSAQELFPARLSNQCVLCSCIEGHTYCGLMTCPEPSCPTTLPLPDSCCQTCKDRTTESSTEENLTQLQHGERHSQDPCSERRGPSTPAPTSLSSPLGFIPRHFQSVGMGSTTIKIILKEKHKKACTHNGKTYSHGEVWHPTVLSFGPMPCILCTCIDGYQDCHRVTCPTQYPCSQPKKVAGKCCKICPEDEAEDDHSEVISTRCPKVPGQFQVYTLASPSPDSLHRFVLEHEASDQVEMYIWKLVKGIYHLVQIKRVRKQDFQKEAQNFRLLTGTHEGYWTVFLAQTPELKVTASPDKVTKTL
Briefly: co-immunoprecipitation: mCHL2-FLAG mixed with activin A, anti-mCHL2 antiserum, protein A agarose beads, western blot for activin. The text has this:
FIG. 12 illustrates the results of Western blot analysis using mCHL2-FLAG proteins. In panel A, mCHL2-FLAG was mixed with BMP5 or activin A, treated with an anti-mCHL2 antiserum, and precipitated with protein A agarose beads. In panel B, mCHL2-FLAG was mixed with BMP2, BMP4, BMP5, BMP6, GDF5 (BMP14), or activin A, treated with an anti-mCHL2 antiserum, and precipitated with protein A agarose beads.

B1: activin A (ligand, UniProt P08476 311-426, looked up)
chain: GLECDGKVNICCKKQFFVSFKDIGWNDWIIAPSGYHANYCEGECPSHIAGTSGSSLSFHSTVINHYRMRGHSPFANLKSCCVPTKLRPMSMLYYDDGQNIIKKDIQNMIVEECGCS
In the case of B1, the binding result is reported as “no binding”.
